Legend:
[1] = target: T1, soluble form of human IL-3Rα protein (extracellular region with C-terminal FLAG tag) (human, UniProt P26951 19-305); experiment: SPR (Biacore 2000): antibody captured on anti-human antibody CM5 chip, soluble IL-3Rα as analyte, 1:1 Langmuir fit
T1 construct: Made in CHOras1 cells, purified on anti-FLAG gel; also called soluble form of IL-3Rα protein; soluble form of human IL-3Rα extracellular region
T1 sequence: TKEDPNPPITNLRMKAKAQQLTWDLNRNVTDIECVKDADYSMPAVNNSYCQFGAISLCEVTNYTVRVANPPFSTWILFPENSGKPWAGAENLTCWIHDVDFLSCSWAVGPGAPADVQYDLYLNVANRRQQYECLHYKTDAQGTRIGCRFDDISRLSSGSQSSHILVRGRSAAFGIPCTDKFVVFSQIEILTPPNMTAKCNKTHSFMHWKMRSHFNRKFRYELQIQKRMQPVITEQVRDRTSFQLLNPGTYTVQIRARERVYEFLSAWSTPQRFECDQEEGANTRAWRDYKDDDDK
Protocol: Specifically, CM5 (research grade) was used for a sensor tip (each GE). Firstly, the CM5 tip was activated by applying an equivalent mixture of 400 mM EDC (N-ethyl-N′-(3-dimethylaminopropyl)carbodiimidehydrochloride) and 100 mM NHS (N-hydroxysuccinimide) to the CM5 tip. Next, an antibody to the human antibody attached to the Human Antibody Capture Kit (GE) (hereinafter, referred to as anti-human antibody antibody) was diluted with the solution attached to the kit and applied thereto, thereby immobilizing the required amount of the anti-human antibody antibody to the CM5 tip. Regarding the mouse antibody to be used as a control, an antibody to the mouse antibody attached to the Mouse Antibody Capture Kit (GE) (hereinafter, referred to as anti-mouse antibody antibody) was diluted with the solution attached to the kit and applied thereto, thereby immobilizing a necessary amount thereof to the CM5 tip. Next, the surface of the activated tip was blocked and inactivated by applying 1 M of ethanolamine dihydrochloride thereto. By the above steps until this, preparation of a CM5 sensor tip which can measure the dissociation constant KD was completed.
Next, each of anti-IL-3Rα antibodies, was diluted to give a concentration of 5 μg/ml with HBS-FP buffer (GE) one kind per one flow cell and applied, thereby allowing it to bind to the immobilized anti-human antibody antibody or anti-mouse antibody antibody. Next, the soluble form of IL-3Rα protein was applied thereto. In order to dissociate the bound anti-IL-3Rα antibody and soluble form of IL-3Rα protein, 3 M MgCl₂ attached to Human Antibody Capture Kit or pH 1.7 of Glycine-HCl attached to Mouse Antibody Capture Kit was applied in the amount attached to the kit. The steps until this were regarded as one step. By repeating the same steps using two or more concentrations of the soluble form of IL-3Rα protein, data for calculating association and dissociation constants (sensorgram) were obtained.
In the analysis, Biaevaluation software (GE) was used and Biaevaluation Software Handbook was referred. Specifically, by carrying out simultaneous analysis of kinetics analysis, employing basically the 1:1 Langmuir binding reaction model and fitting, association rate constant (Ka) and dissociation rate constant (Kd) were calculated, and the value of dissociation constant KD was calculated by the calculation of Kd/Ka.

[2] = target: T2, IL-3Rα/GM-CSFRα chimeric protein, B domain of IL-3Rα replaced by that of GM-CSFRα, on HEK293T cells (human, UniProt P15509 115-213); experiment: flow cytometry, labelled antibody at 1 µg/ml, HEK293T cells expressing the construct
T2 construct: domain: B domain; The KpnI sites (GGTACC) at both junctions each encode an extra Gly-Thr; also called B domain substitution
T2 sequence: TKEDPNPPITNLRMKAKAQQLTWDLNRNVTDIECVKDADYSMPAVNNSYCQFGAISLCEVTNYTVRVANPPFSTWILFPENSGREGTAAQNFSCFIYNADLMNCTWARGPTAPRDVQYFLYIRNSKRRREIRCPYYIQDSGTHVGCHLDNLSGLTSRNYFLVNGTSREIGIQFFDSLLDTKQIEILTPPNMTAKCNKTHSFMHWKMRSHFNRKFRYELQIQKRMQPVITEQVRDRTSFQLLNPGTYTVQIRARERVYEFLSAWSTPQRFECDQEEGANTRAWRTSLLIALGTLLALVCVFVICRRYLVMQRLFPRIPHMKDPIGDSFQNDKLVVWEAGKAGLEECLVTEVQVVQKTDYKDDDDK
Protocol: (§1) HEK293T cell (ATCC CRL 1268) was used for the preparation of the IL-3Rα/GM-CSFRα chimeric protein expression cell. Using 293Fectin (Invitrogen), the plasmid DNA obtained in the above was introduced as an expression vector into the HEK293T. The HEK293T to which the expression vector was introduced was cultured using a shaker under conditions of 5% CO₂ and 37° C. after 2 days of the introduction, the […] was used for in the flow cytometry analysis.
(§2) From 100,000 to 1,000,000 cells of the chimeric protein expression cell were allowed to react for 30 minutes on ice with at a concentration of 1 μg/ml with an AlexaFlour488-labeled human antibody or a commercially available FITC-labeled anti-IL-3Rα mouse antibody (7G3 or 9F5: both from BD Biosciences, 6H6: Acris Antibodies, AC145: Milteny Biotech, 107D2.08: Dendritics). A staining medium (Dulbecco's PBS supplemented with 2% fetal bovine serum, 2 mM EDTA and 0.05% NaN₃) was used for the dilution of antibodies and cells. Next, the cells reacted with antibodies were washed three times with the staining medium and whether the labeled antibody bound to the cell was confirmed by flow cytometry.

[3] = target: T3, IL-3Rα/GM-CSFRα chimeric protein, region 6 (182-ILVRGRS-188) of IL-3Rα replaced by GM-CSFRα sequence, on … (human, UniProt P26951 19-378); experiment: as above
T3 construct: also called Region 6 (B)
T3 chain: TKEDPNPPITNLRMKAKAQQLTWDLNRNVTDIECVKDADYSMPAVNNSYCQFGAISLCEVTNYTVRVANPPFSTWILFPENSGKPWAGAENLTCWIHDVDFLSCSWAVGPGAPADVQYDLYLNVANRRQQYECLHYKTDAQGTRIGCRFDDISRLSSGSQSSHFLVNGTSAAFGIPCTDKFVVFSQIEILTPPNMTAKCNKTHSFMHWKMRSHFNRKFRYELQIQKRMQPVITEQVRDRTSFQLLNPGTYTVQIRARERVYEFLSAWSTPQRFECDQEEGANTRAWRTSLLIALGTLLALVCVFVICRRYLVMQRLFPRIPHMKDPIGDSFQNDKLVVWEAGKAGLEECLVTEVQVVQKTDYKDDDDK

[4] = target: T4, IL-3Rα/GM-CSFRα chimeric protein, region 7 (192-GIPCTDK-198) of IL-3Rα replaced by GM-CSFRα sequence, on … (human, UniProt P26951 19-378); experiment: as above
T4 construct: also called Region 7 (B)
T4 chain: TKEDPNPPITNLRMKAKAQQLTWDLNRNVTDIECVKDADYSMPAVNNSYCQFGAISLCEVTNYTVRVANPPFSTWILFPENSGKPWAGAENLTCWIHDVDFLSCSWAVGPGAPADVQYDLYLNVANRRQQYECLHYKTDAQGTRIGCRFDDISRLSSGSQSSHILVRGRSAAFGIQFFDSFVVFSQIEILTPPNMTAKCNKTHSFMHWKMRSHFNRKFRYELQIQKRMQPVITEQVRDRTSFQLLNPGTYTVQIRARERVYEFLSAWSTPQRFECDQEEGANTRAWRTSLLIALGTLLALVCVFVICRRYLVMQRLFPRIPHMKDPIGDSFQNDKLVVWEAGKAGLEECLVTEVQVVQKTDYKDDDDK

[5] = target: T5, IL-3Rα/GM-CSFRα chimeric protein, C domain of IL-3Rα replaced by that of GM-CSFRα, on HEK293T cells (human, UniProt P15509 214-327); experiment: as above
T5 construct: domain: C domain; KpnI sites at both junctions each encode an extra Gly-Thr; also called C domain substitution
T5 sequence: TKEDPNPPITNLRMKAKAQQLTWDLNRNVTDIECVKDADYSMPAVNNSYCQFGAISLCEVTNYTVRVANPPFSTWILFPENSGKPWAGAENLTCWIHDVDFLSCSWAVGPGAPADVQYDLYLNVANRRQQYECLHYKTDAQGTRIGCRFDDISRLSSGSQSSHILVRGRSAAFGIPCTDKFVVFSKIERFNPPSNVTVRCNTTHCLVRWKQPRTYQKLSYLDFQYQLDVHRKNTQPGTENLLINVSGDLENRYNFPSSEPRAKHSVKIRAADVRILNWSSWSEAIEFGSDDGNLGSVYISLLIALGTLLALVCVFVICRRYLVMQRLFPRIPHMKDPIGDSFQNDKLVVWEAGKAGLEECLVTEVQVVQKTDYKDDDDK
Protocol: as §1, §2

B1: Old17 anti-human IL-3Rα human antibody (antibody, human IgG1, V domains shown)
VH: QVQLVQSGAEVKKPGSSVKVSCKTSGGTFSNFAISWVRQAPGQGLEWMGGIIPIFGSTNYAQKFQGRVTINADESTSTAYMELSSLRSEDTAVYYCAGGDKYGPYYFHYWGQGTLVTVSS
VL: DIQMTQSPSSLSASVGDRVTITCRASQGISSWLAWYQQKPEKAPKSLIYAASSLQSGVPSRFSGSGSGTDFTLTISSLQPEDFATYYCQQYNSYPYTFGQGTKLEIK
notes: Human antibody; recombinant form in N5KG1-Val Lark vector (human IgG1, kappa)
Kd [1]: 1.43 nM

B2: New102 anti-human IL-3Rα human antibody (antibody, human IgG1, V domains shown)
VH: QVQLVQSGAEVKKPGSSVKVSCMASGGTVSSYAISWVRQAPGQGLEWMGEIIPIFGIVNYAQKFQGRVTITADESTNTAYMELSSLRSEDTAIYYCARETAVAGILGYWGQGTLVTVSS
VL: DIQMTQSPSSLSASVGDRVTITCRASQGISSWLAWYQQKPEKAPKSLIYAASSLQSGVPSRFSGSGSGTDFTLTISSLQPEDFATYYCQQYNSYPYTFGQGTKLEIK
notes: as for B1
binding result [2]: no binding (tested: 1 µg/ml)
binding result [3]: no binding (tested: 1 µg/ml)
binding result [4]: no binding (tested: 1 µg/ml)
Kd [1]: 0.798 nM

B3: Old6 anti-human IL-3Rα human antibody (antibody, human IgG1, V domains shown)
VH: EVQLVESGGGLVKPGGSLRLSCAASGFTFSSHNMNWVRQAPGKGLEWVSSISSSSSYIYYADSVKGRFTISRDNAKNSLYLQMNSLRAEDTAVYYCAREDWGYFDYWGQGTLVTVSS
VL: AIQLTQSPSSLSASVGDRVTITCRASQGISSDLAWYQQKPGKAPKLLIYDASSLESGVPSRFSGSGSGTDFTLTISSLQPEDFATYYCQQFNSYPFTFGPGTKVDIK
notes: Human antibody
binding result [2]: no binding (tested: 1 µg/ml)
binding result [5]: no binding (tested: 1 µg/ml)
Kd [1]: 1.26 nM

B4: chimeric 7G3 antibody (mouse 7G3 variable regions, human IgG1 constant region) (antibody, V domains shown)
VH: EVQLQQSGPELVKPGASVKMSCKASGYTFTDYYMKWVKQSHGKSLEWIGDIIPSNGATFYNQKFKGKATLTVDRSSSTAYMHLNSLTSEDSAVYYCTRSHLLRASWFAYWGQGTLVTVSA
VL: DFVMTQSPSSLTVTAGEKVTMSCKSSQSLLNSGNQKNYLTWYLQKPGQPPKLLIYWASTRESGVPDRFTGSGSGTDFTLTISSVQAEDLAVYYCQNDYSYPYTFGGGTKLEIK
notes: also called 7G3 (Chimeric antibody)
Kd [1]: 1.88 nM

B5: Old4 anti-human IL-3Rα human antibody (antibody, human IgG1, V domains shown)
VH: QVQLLQSGAEVKKPGSSVKVSCKASGGTFSTYAISWVRQAPGQGLEWMGGIIPIFGIVNYAQKFQGRVTITADESTSTAYMELSSLRSEDTAVYYCARGGGSGPDVLDIWGQGTMVTVSS
VL: VIWMTQSPSLLSASTGDRVTISCRMSQGIRSYLAWYQQKPGKAPELLIYAASTLQSGVPSRFSGSGSGTDFTLTISSLQSEDFATYYCQQYYSFPYTFGQGTKLEIK
notes: Human antibody from KM mouse hybridoma; recombinant form made in N5KG1-Val Lark vector (human IgG1, kappa) in HEK293F
binding result [2]: no binding (tested: 1 µg/ml)

B6: Old5 anti-human IL-3Rα human antibody (antibody, human IgG1, V domains shown)
VH: QVQLVQSGAEVKKPGSSVKVSCKASGGTFSTYAISWVRQAPGQGLEWMGGLIPIFDIENYAQKFQGRVTITADESTSTVYMELSSLRSEDTAMYYCARGGGSGPDVLDIWGQGTMVTVSS
VL: VIWMTQSPSLLSASTGDRVTISCRMSQGIRSYLAWYQQKPGKAPELLIYAASTLQSGVPSRFSGSGSGTDFTLTISSLQSEDFATYYCQQYYSFPYTFGQGTKLEIK
notes: as for B1
binding result [2]: no binding (tested: 1 µg/ml)

From patent US20160280792A1 (Kyowa Kirin, published 2016)
